Tests used:
[1] = system: OVCAR-3 human ovarian cancer xenograft; test: OVCAR-3 xenograft model (Example 46); assay type: in vivo, female NOD SCID mice
Experimental: (§1) Five mice were housed in each cage.
(§2) OVCAR-3 cells were subcutaneously (SC) implanted (1×10^7 cells in 1:1 PBS/matrigel mixture at 0.2 mL per mouse) into the right flank of female NOD SCID mice. […] Each of the vehicle, DCBPR2002-4(DBCO-vc-MMAE) (15 and 30 mg/kg), and DCBPR2002-4(DBCO-vc-seco-DUBA) (15 mg/kg) was intravenously administered once weekly for 3 weeks.
(§3) Differences are considered significant at *P<0.05.

[2] = system: OVCAR-3 human ovarian cancer xenograft; test: OVCAR-3 xenograft model (Example 48); assay type: in vivo, female NOD SCID mice; conditions: for tumor growth: TGI≥58% considered significant
Experimental: as §1
OVCAR-3 cells were subcutaneously (SC) implanted (1×10^7 cells in 1:1 PBS/matrigel mixture at 0.2 mL per mouse) into the right flank of female NOD SCID mice. […] Each of the vehicle, and DCBPR2002-4(DBCO-vc-MMAE) (5, 10, and 15 mg/kg) was intravenously administered once weekly for 3 weeks.
as §3

[3] = molecular target: mesothelin protein (Homo sapiens, UniProt Q13421); test: Binding kinetics of anti-mesothelin ADCs by surface plasma resonance (Biacore T100); conditions: analyte MSLN
Chain of mesothelin protein (Q13421 with tags, fused parts or gaps): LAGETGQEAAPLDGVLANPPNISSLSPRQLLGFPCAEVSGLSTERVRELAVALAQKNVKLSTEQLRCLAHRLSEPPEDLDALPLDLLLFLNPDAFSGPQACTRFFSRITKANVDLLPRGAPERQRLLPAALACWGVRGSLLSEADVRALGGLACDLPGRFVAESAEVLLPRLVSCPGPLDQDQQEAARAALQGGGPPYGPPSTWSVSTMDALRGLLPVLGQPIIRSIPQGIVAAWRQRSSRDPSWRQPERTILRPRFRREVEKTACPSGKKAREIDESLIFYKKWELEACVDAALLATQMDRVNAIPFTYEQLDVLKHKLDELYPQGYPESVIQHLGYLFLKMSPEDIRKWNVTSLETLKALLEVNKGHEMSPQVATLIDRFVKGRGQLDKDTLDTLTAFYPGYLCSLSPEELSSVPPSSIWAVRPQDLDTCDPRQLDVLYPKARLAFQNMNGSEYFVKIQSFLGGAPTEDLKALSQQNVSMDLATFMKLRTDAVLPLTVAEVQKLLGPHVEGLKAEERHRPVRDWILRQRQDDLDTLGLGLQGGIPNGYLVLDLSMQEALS
Experimental: The kinetic constant of the anti-mesothelin ADCs interaction against mesothelin was determined by surface plasma resonance (Biacore® T100, Biacore, Inc., Piscataway, NJ). The flow cell of the CM5 wafer was fixed with approximately 10,000 reaction units (RU) of anti-human IgG-Fc (Biacore®) in 10 mM glycine pH 5.0 at 10 μL/min for 600 seconds. 10 μg/mL of anti-mesothelin antibody and anti-mesothelin ADCs diluted in TBS at 10 μl/min were captured on CM5 chips. Four concentrations (from 3.7 to 100 nM) of human mesothelin recombinant protein and zero concentration (flow buffer) in 100 μl/min binding were recorded in PBS containing 1 mM CaCl2 for 3 minutes. The dissociation of the complex was measured for 10 minutes. The water surface was regenerated by injecting 3 M MgCl2 and 3 mM EGTA at 10 μl/min for 60 seconds. The curve obtained after subtracting the reference and buffer signals was taken into the 1:1 Langmuir binding model using the Biacore® T100 evaluation software (Biacore®).

[4] = system: OVCAR-3 human ovarian cancer xenograft; test: OVCAR-3 xenograft model (Example 47); assay type: in vivo, female NOD SCID mice; conditions: for tumor growth / anti-tumor activity: TGI≥58% considered significant
Experimental: as §1
as §2, with “DCBPR2002-4(DBCO-vc-MMAE) (5” for “DCBPR2002-4(DBCO-vc-MMAE) (15”, “and 15” for “and 30”, “and DCBPR2002-TM” for “and DCBPR2002-4(DBCO-vc-seco-DUBA)”
as §3

[5] = In vivo PK in rats, MSD ECL total and conjugated antibody assays; conditions: for AUC(0−last) / AUC(0−∞) / C0 / CL / MRT / Vss / t1/2: 5 mg/kg via the tail vein, serum
Source text: This study used Meso Scale Discovery (MSD) Electrochemiluminescent (ECL) method to conduct the pharmacokinetic analysis of DCBPR2002-4(DBCO-vc-MMAE) in BALB/c mice and rat samples. The MSD assay can measure both conjugated and unconjugated antibodies. As illustrated in this example, or total antibody assay the plate is coated with goat anti-human IgG, which can capture all humanized antibodies (conjugated and unconjugated). For the conjugated antibody assay, the plate is coated with an antibody against the payload (drug), such as anti-MMAE antibody.
The in vivo pharmacokinetic study was designed for the comparison the linker-payload stability of trimannosyl-conjugated and cysteine-conjugated synthesis ADC (Adcetris). The rats were administered DCBPR2002-4(DBCO-vc-MMAE) and Adcetris at a dose level of 5 mg/kg via the tail vein. Serum samples were then obtained at different time points for determination of the concentrations of DCBPR2002-4(DBCO-vc-MMAE) and Adcetris in rats by MESO QuickPlex SQ 120 method. The pharmacokinetic parameters of DCBPR2002-4(DBCO-vc-MMAE) and Adcetris were analyzed by noncompartmental analysis using Phoenix™ for WinNonlin Program, version 6.3.

[6] = system: KLM-1 human pancreatic cancer xenograft; test: KLM-1 xenograft model (Example 43); assay type: in vivo, male NOD SCID mice; conditions: 15 mg/kg IV once weekly for 3 weeks
Experimental: Each of the formulations was administered intravenously (IV) to the mice once weekly for three weeks.
as §1
When the average tumor volume had reached about 200 mm^3, the mice were randomly divided into 3 groups (N=6 per group). Each of the vehicle, DCBPR2002-lysine-DBCO-vc-MMAE (15 mg/kg), and DCBPR2002-4(DBCO-vc-MMAE) (15 mg/kg) was intravenously administered once weekly for 3 weeks.
as §3

[7] = 15 mg/kg IV once weekly for 3 weeks
[8] = 5 mg/kg IV once weekly for 3 weeks
[9] = 10 mg/kg IV once weekly for 3 weeks

B1: DCBPR2002-4(DBCO-vc-MMAE): DCBPR2002-4Az reacted with DBCO-vc-MMAE; trimannosyl-conjugated ADC, DAR 3.89 (conjugate)
VH: QVQLVQSGAEVKKPGASVKVSCKASGYSFTGYTMNWVRQAPGQGLEWMGLITPYNGASSYNQKFRGRVTMTRDTSISTAYMELSRLRSDDTAVYYCARGGYDGRGFDYWGQGTLVTVSS
VL: EIVLTQSPATLSLSPGERATLSCSASSSVSYMHWYQQKPGQAPRLLIYDTSKLASGIPARFSGSGSGTDFTLTISSLEPEDFAVYYCQQWSKHPLTFGQGTKVEIKR
In the case of B1, the body weight changes [1, 7] is reported as “No body weight loss was observed”, the body weight changes ([1]; 30 mg/kg IV once weekly for 3 weeks) is reported as “No body weight loss was observed” and the body weight changes [2, 8] is reported as “No body weight loss was observed”. For the same molecule, the tumor growth [2, 8] was “significantly reduced OVCAR-3 tumor growth with a dose-dependent manner”, the body weight changes [2, 9] was “No body weight loss was observed” and the tumor growth [2, 9] was “significantly reduced OVCAR-3 tumor growth with a dose-dependent manner”. For the same molecule, the body weight changes [2, 7] was “No body weight loss was observed”, the tumor growth [2, 7] was “significantly reduced OVCAR-3 tumor growth with a dose-dependent manner” and the “Rmax(RU)” value [3] was 55.99 RU. The Ka ([3]; antibody/ADC captured on CM5 chip via anti-human IgG-Fc) was 5.395E+6, the “dissociation rate constant (koff)” value ([3]; dissociation rate, antibody/ADC captured on CM5 chip) was 1.17E−4 and the body weight changes [4, 8] was “No body weight loss was observed”. For the same molecule, the “tumor growth / anti-tumor activity” value [4, 8] was “significantly reduced OVCAR-3 tumor growth”, the body weight changes [4, 7] was “No body weight loss was observed” and the “tumor growth / anti-tumor activity” value [4, 7] was “significantly reduced OVCAR-3 tumor growth”. For the same molecule, the “AUC(0−last)” value ([5]; Conjugated antibody) was 2334.505 µg·h/mL, the “AUC(0−∞)” value ([5]; Conjugated antibody) was 2400.45 µg·h/mL and the C0 ([5]; Conjugated antibody) was 80.955 µg/mL. For the same molecule, the CL ([5]; Conjugated antibody) was 2.1 mL/h/kg, the MRT ([5]; Conjugated antibody) was 85.6 h and the Vss ([5]; Conjugated antibody) was 0.179 L/kg. For the same molecule, the t1/2 ([5]; Conjugated antibody) was 148 ± 8.14 h, the “AUC(0−last)” value ([5]; Total antibody) was 4013.185 µg·h/mL and the “AUC(0−∞)” value ([5]; Total antibody) was 4363.325 µg·h/mL. The C0 ([5]; Total antibody) was 94.121 µg/mL, the CL ([5]; Total antibody) was 1.14 mL/h/kg and the MRT ([5]; Total antibody) was 160 h. The Vss ([5]; Total antibody) was 0.183 L/kg, the t1/2 ([5]; Total antibody) was 194 ± 35.0 h and the “difference between the curve of total antibody and conjugated antibody (stability of the conjugated linker-payload)” value ([5]; 5 mg/kg, compared with Adcetris) was “closed on DCBPR2002-4(DBCO-vc-MMAE) than that of Adcetris”. For the same molecule, the body weight changes [6] was “No body weight loss was observed” and the “tumor growth / anti-tumor activity” value ([6]; TGI≥58% considered significant) was “significantly reduced KLM-1 tumor growth from Day 7 to Day 28”.

From patent US11998613B2, “Antibody-drug conjugates containing an anti-mesothelin antibody and uses thereof” (DEVELOPMENT CENTER FOR BIOTECHNOLOGY, priority 2020, dated 2024)
